% of cells in the positive gate data for one substance are collected here from patent publication US20250381223A1.

Experiment [1] addresses Her2-Fc. As to the kind of experiment: flow cytometry of T cells with 0.5 µg 4D5.BBZ mRNA and 15 µg 4.6 mRNA; Her2-Fc + PE-anti-IgG-Fc; E1 without mRNA: 1.26. (In flow cytometry, cells or beads pass a laser one at a time.)
Experiment [2] concerns the target Her2-Fc. As to the kind of experiment: flow cytometry of T cells with 0.5 µg 4D5.BBZ mRNA and 15 µg 4.1 mRNA; Her2-Fc + PE-anti-IgG-Fc; E1 without mRNA: 1.26.
Experiment [3] deals with Her2-Fc. Briefly: flow cytometry of T cells with 0.5 µg 4D5.BBZ mRNA and 15 µg 4.5 mRNA; Her2-Fc + PE-anti-IgG-Fc; E1 without mRNA: 1.26.
Experiment [4] addresses Her2-Fc. As to the kind of experiment: flow cytometry of T cells with 0.5 µg 4D5.BBZ mRNA and 15 µg 4.3 mRNA; Her2-Fc + PE-anti-IgG-Fc; E1 without mRNA: 1.26.
For experiment [5], the target named is Her2-Fc. As to the kind of experiment: flow cytometry of T cells electroporated with 0.5 µg 4D5.BBZ mRNA alone; Her2-Fc + PE-anti-IgG-Fc; E1 without mRNA: 1.26.
Experiment [6] has as its target Her2-Fc. As to the kind of experiment: flow cytometry of T cells with 0.5 µg 4D5.BBZ mRNA and 15 µg 4.4 mRNA; Her2-Fc + PE-anti-IgG-Fc; E1 without mRNA: 1.26.
Experiment [7] concerns the target Her2-Fc. As to the kind of experiment: flow cytometry of T cells with 0.5 µg 4D5.BBZ mRNA and 15 µg 4.7 mRNA; Her2-Fc + PE-anti-IgG-Fc; E1 without mRNA: 1.26.
Experiment [8] deals with Her2-Fc. As to the kind of experiment: flow cytometry of T cells with 0.5 µg 4D5.BBZ mRNA and 15 µg 4.2 mRNA; Her2-Fc + PE-anti-IgG-Fc; E1 without mRNA: 1.26.
In experiment [9] the target is Her2-Fc. As to the kind of experiment: flow cytometry of T cells with 0.5 µg 4D5.BBZ mRNA and 5 µg A40C28 mRNA; Her2-Fc + PE-anti-IgG-Fc; E1 without mRNA: 1.26.
For experiment [10], the target named is Her2-Fc. Briefly: flow cytometry of T cells with 0.5 µg 4D5.BBZ mRNA and 15 µg 1412-4D11 mRNA; Her2-Fc + PE-anti-IgG-Fc; E1 without mRNA: 1.26.
The next experiment addresses CD40-Fc (human) (UniProt P25942). As to the kind of experiment: flow cytometry of T cells electroporated with 0.5 µg 4D5.BBZ mRNA alone; CD40-Fc + PE-anti-IgG-Fc; E1 without mRNA: 0.27.
In experiment [11] the target is Her2-Fc. As to the kind of experiment: flow cytometry of T cells with 0.5 µg 4D5.BBZ mRNA and 15 µg 8.6 mRNA; Her2-Fc + PE-anti-IgG-Fc; E1 without mRNA: 1.26.
For experiment [12], the target named is Her2-Fc. Briefly: flow cytometry of T cells with 0.5 µg 4D5.BBZ mRNA and 15 µg 4.8 mRNA; Her2-Fc + PE-anti-IgG-Fc; E1 without mRNA: 1.26.

4D5.BBZ (scFv): the % of cells in the positive gate with Her2-Fc [1] is 87.9; in the experiment with Her2-Fc [2] it was 89.6; in the experiment with Her2-Fc [3], 85.5; with Her2-Fc [4] it was 91.4; in the experiment with Her2-Fc [5], 94.9; with Her2-Fc [6], 91.1. Also, the % of cells in the positive gate stood at 82.6 with Her2-Fc [7]; 88.8 with Her2-Fc [8]; 94.6 with Her2-Fc [9]; 18.5 with Her2-Fc [10]; 0.67 with CD40-Fc (human); 86.1 with Her2-Fc [11]. Besides, in the experiment with Her2-Fc [12], the % of cells in the positive gate amounted to 81.6.
